In US10245299B2, “Autoassembling peptides for the treatment of pulmonary bulla” (3-D MATRIX, LTD., priority 2014, dated 2019):

How the values were obtained:
pulmonary bulla = assay: Filling of pulmonary bulla cavity through connecting bronchioles before collapse; conditions: 1.0% RADA16 with 0.00585% indigo carmine
Method: A method for pulmonary bullae treatment using peptide hydrogel systems distinct from the method discussed in Example 19 was tested. Here, the pulmonary bullae are generally filled prior to collapse.
The pulmonary bulla cavity was filled with 1.0% RADA16 through the connecting bronchioles using an endotracheal tube inserted through the primary bronchus and into the lung. The bulla was then collapsed to remove the pocket of trapped air. 1.0% RADA16 mixed with 0.00585% indigo carmine was used here for visualization of the hydrogel spreading into the bullae cavity.

pulmonary bullae = assay: Burst pressure of hydrogels as air sealants on collapsed pulmonary bullae of swine lungs
Text: Swine lungs were obtained from freshly euthanized pigs. An endotracheal tube was inserted through the trachea and primary bronchus into the lung of interest. Pressure was supplied to the lungs with the use of a manual endotracheal intubation pump. The trachea was tied off to prevent air leakage around the tube. The other primary bronchus of the other lung was clamped to direct all airflow to the lung of interest. A manometer was used to measure the pressure of air directed into the lungs to induce expansion.
The self-assembling peptide hydrogels were comprised of Ac-RADARADARADARADA-NH2 (SEQ ID NO: 1) (i.e. RADA16) and Ac-IEIKIEIKIEIKI-NH2 (SEQ ID NO: 2) (i.e. IEIK13) with RADA16 used alone or mixed with calcium chloride. If alone, the peptides were reconstituted in deionized water. If, however the peptides were reconstituted with a salt solution, the peptides were reconstituted first in deionized water, and subsequently, a 2× solution of calcium chloride at a previously decided concentration which was mixed in at a 1:1 ratio.
Pulmonary bullae, as depicted in FIG. 25, are naturally occurring weak areas of the pleura. Prior to application of the hydrogels, the bullae were identified and collapsed using a 16 G needle. […]

[1] = Rheology of peptides mixed with cation/anion solutions; assay type: physicochemical
Method: In a rheological comparison of 2.5% RADA16 and 2.5% RADA16+NaCl, KCl, and CaCl2, solutions of 0.5% RADA16 mixed with 0.005, 0.05, 0.125, 0.25, 0.5, and 1 M NaCl, KCl, and CaCl2 were prepared. The anion, chloride (Cl−), was kept the same to observe the effect of the cations, sodium (Na+), potassium (K+), and calcium (Ca2+). FIG. 21 provides a basic understanding of how varying the cations of a salt solution effects the viscoelastic properties and the stiffness of self-assembling peptides. […] This should be because Ca has […] higher ionic strength than Na and K at the same molar concentrations. Therefore, influence of salts on the peptide solution is more related to their ionic strength rather than their molar concentration, as shown in FIGS. 17-18 and Table 2a-c. In some embodiments, there is a correlation between the properties of the peptide solutions with salts based on the concentration of the salts.
Rheological measurements of stiffness of 2.5% RADA16 and 2.5% RADA16+0.25 M CaCl2 was evaluated.
Rheological measurements of reversibility of 0.5% RADA16 solution with +0.125, 0.25, and 0.5 M CaCl2 were evaluated. Solutions of 0.5% RADA16 mixed with 0.125, 0.25, and 0.5 M CaCl2 were prepared. The structure of the self-assembled peptide solution were disrupted thoroughly by application of mechanical stress through vortexing and sonication. The mixtures were placed at room temperature for 48 hours to allow self-assembly to take place. […] FIG. 23a presents raw rheological data of the peptide solution with salts and the perturbed peptide solution while FIG. 23b provides a comparison of stiffness of the control peptide solution and the perturbed peptide solution.
Rheological measurements of gelation kinetics of 0.5% RADA16+NaCl, KCl, and CaCl2 were evaluated. A solution of 0.5% RADA16 was prepared and gelation kinetics were observed by treatment with several cations (e.g. Na, […], K) and anions (e.g. Cl, CO3, PO4, SO4). It was determined how long it will take for the peptide mixtures to gel and how to control that gelation time by varying the cation/anion type and concentration. […] In vivo and in vitro qualitative experiments and the resulting observations were supportive of these conclusions.
The two gels were: (1) a combination of the self-assembling peptide with a well-known cation/anion solution, Ringer's Solution (pH 5.3), used in the medical field and (2) a combination of the self-assembling peptide with a well-known contrast agent, indigo carmine, which is a dye solution containing sulfate (anion) and sodium (cation) ions. Indigo carmine contains indigoindisulfonate sodium (C16H8N2Na2O8S2), water, and sodium citrate […] for pH adjustment. Using indigo carmine powder, a 1% solution was prepared for use in experimentation. This corresponds to 10 mg/1 ml of water. The concentration of indigo carmine solution used in experimentation was 0.00585% in water.
The rheological comparisons of these mixtures and the visualization of the gels can be observed in FIG. 24a-24c. […] The concentration of the contrast agent or cation/anion mixture and peptide hydrogel that were mixed were based on an understanding of using cations and anions as described herein. […] FIG. 24C presents a comparison of stiffness of RADA16 and RADA16 mixed with Ringer's Solution.

[2] = Rheological properties (storage moduli) of 1% peptides before and after DMEM treatment for 2 minutes; assay type: physicochemical; conditions: peptides 1%, compared between peptides
Method: The effects of Dulbecco's modified Eagle's medium (DMEM) (pH 7.4) on the rheological properties of IEIK13, KLD12, and PuraMatrix® were evaluated on a rheometer (AR500, TA Instruments) with 40 mm plates. DMEM is generally a cell culture medium that contains 6.4 g/L of NaCl, 3.4 g/L NaHCO3 (sodium bicarbonate), minor amounts of other salts, various amino acids, and 4.5 g/L of glucose. The pH level of DMEM is generally 7.2±0.2 and the osmolality is 335±30 mOsm/Kg H2O; both measurements are close to human physiological fluids such as blood.
Peptide solutions (1%) were kept at 4° C. for at least 48 hours before testing. To perform the experiment, 1 mL of peptide solution was gently pipetted and placed on the plate of the rheometer. 2 mL of DMEM solution was gently added around the peptide solution. The peptide solution was treated with DMEM for two minutes, then the media was removed, and the plates were placed at a measuring geometry gap at around 450 μm. Measurements were performed at 37° C. after 2 min of relaxation time. Frequency tests were performed from 1 rad/s to 100 rad/s at 1 Pa of oscillation stress.
The rheological properties of the peptides (1%) were compared before and after DMEM treatment for 2 minutes, as shown in FIG. 1A. […]

Row | Substance | filling of bullae cavity through the connecting bronchioles (pulmonary bulla) | burst pressure compared among formulations (pulmonary bullae; 2.5% RADA16 mixed with 0.250 M CaCl2) | filling of collapsed bullae cavity, histological analysis (pulmonary bullae; 2.5% RADA16 with CaCl2) | gelation kinetics by cation/anion type ([1]; 0.5% RADA16) | reversibility after perturbation ([1]; 0.5% RADA16 with CaCl2 within the optimal salt concentration range, vortexing and sonication, 48 hours at room temperature) | stiffness with added CaCl2 ([1]; 2.5% RADA16 vs 2.5% RADA16 with CaCl2) | effect of cations on stiffness ([1]; RADA16 mixed with 0.005-1 M NaCl, KCl, and CaCl2, same molar concentrations) | mechanical properties of mixed gel ([1]; RADA16 mixed with Ringer's Solution (pH 5.3)) | fold increase of storage modulus after DMEM treatment [2] | mechanical properties of mixed gel ([1]; 1.5% IEIK13 mixed with 0.00585% indigo carmine)
1 | Arg-Ala-Asp-Ala-Arg-Ala-Asp-Ala-Arg-Ala-Asp-Ala-Arg-Ala-Asp-Ala [PuraMatrix®] | completely fill the bullae cavity | best burst pressure | entirely filled the pulmonary bullae cavity | Chlorine showed the quickest gelation and sulfate showed the slowest gelation | remained reversible | noticeable increase in stiffness | Ca provided the best enhancement of stiffness | A stiffer gel with faster gelation kinetics that maintains reversibility | – | –
2 | Ile-Glu-Ile-Lys-Ile-Glu-Ile-Lys-Ile-Glu-Ile-Lys-Ile [IEIK13] | – | – | – | – | – | – | – | – | lower-fold increase of storage modulus than weaker peptide solutions | maintains stiffness, reversibility, and gelation kinetics
